# Laboratory results: article PMC11602162
# Target: N-NTD (SARS-CoV-2 (Wuhan-Hu-1)) (UniProt P0DTC9)
# Test: DSF
# Conditions: 10 mM Tris-HCl pH 7.4, 150 mM NaCl, 1 mM MgCl2, BLI with 0.05% Tween-20
sequence,measurement,value
TCGGACATCGGAATGTCTGA [A58-20 T6-to-A],binding signal,-0.5 C (Tm shift)
